Values quoted from earlier work as cited in paper PMC12593480.

Molecular target: IL6 (Homo sapiens) (UniProt P05231)
Sequence of UniProt P05231 (P05231 30-212): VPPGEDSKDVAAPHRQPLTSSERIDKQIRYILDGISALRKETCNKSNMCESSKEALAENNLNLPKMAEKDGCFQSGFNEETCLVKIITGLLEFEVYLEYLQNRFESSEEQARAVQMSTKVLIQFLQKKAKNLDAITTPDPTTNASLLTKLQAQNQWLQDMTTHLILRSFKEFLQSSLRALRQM

For “IL6 receptor alpha (from UniProt P08887)”, the Kd is given as 9 nM.
